The record followed here is patent US20240343806A1 (EUCURE BEIJING BIOPHARMA, published 2024).

Experiment [1] deals with T1, mouse CTLA4 (mouse, UniProt P09793 36-223).
T1 construct: Expressed on transfected CHO cells; also called mCTLA4
Put plainly: flow cytometry on CHO-mCTLA4 cells; SSC vs Anti-mouse-IgGFc-FITC. A general note: In flow cytometry, cells or beads pass a laser one at a time.

In experiment [2] the target is T1, mouse CTLA4. Kind of experiment: flow cytometry on CHO-mCTLA4 cells; SSC vs Anti-Human-IgGFc-FITC. The procedure: 25 ul CHO cells were added to each well.
After being washed with PBS (1200 rmp, 5 min) twice, 50 ul of anti-human IgG Fc antibody fluorescein isothiocyanate conjugate (IgG Fc-FITC) was added at 1:100 dilution into each well and was incubated at 4° C. for 30 minutes, followed by PBS wash. The signals for FITC were determined by flow cytometry.

T1 sequence (P09793 36-223 S182T limits assumed): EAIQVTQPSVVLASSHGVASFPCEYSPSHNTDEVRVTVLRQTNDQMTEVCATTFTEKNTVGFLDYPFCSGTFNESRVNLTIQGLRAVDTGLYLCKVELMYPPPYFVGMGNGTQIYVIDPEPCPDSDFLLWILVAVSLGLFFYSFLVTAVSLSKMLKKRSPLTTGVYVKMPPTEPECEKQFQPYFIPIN

B1: CT4-20-7E12 (antibody, V domains shown)
VH: EVKLDETGGGLVQPGRPMKLSCVASGFTFSDYWMNWVRQSPEKGLEWVAQIRNKPYNYETHYSDSVKGRFTISRDDSKSSVYLQMNNLRGEDMGIYYCTGTFAYWGQGTLVTVSA
VL: DIQMTQSPTSLSASVGETVTITCGTSENIYGGLNWYQRKQGKSPQLLIYGATNLADGMSSRFSGSGSGRQYSLKISSLHPDDVATYYCQNVLSTPYTFGGGTKLEIK
notes: Mouse monoclonal antibody purified from ascites fluid
Take B1: the binding result in the experiment with mouse CTLA4 [1] is on record as “no binding (tested: 1 ug/ml)”.

B2: CT4-04-13A4-mHvKv-IgG1 (antibody, V domains shown)
VH: QVQLQQSGAELVRPGASVTLSCKASGYTFTDYEMHWVKQTPVHGLEWIGVIDPETGGTAYNQKFKGKATLTADRSSSTAYMELRSLTSEDSAVYYCTRGTTVVGLDYWGQGTTLTVSS
VL: DIQMTQSPASLSASVGESVTITCRASGNIHNYLAWYQQKQGKSPQLLVYKEKTLTDTVPSRFSGSGSGTQFSLKINSLQPEDFGSYYCQHFWSTPWTFGGGTNLEIK
Turning to B2, the binding result in the experiment with mouse CTLA4 [2] is given as “no binding (tested: 1 ug/ml)”.

B3: CT4-20-6D2 (antibody, V domains shown)
VH: QVQLQQSGAELVRPGASVTLSCKASGYTFTDYEMHWVKQTPVHGLEWIGTIDPETGGTAYNQKFKGKATLTTDKSSSTAYMELRSLTSEDSAVYYCTRRGKYGNYDYVMDYWGQGTSVTVSS
VL: DIQMTQSPASLSASVGETVTITCRASGNIHNYLAWYQQKQGKSPQLLVFNAKTLADGVPSRFSGSGSGTQYSLKINSLQPEDFGNYYCQHFWSTPWTFGGGTKLEIK
notes: as for B1
With B3, the binding result with mouse CTLA4 [1] is listed as “no binding (tested: 1 ug/ml)”.

B4: CT4-03-4G12-mHvKv-IgG1 (antibody, V domains shown)
VH: DVKLVESGGGLVKPGGSLKLSCTASGFTFSSYTMSWVRQTPEKRLEWVATISRGGGYTSYPDSVKGRFTISRDNAKNTLYLQMSSLQSEDTAMYYCARDDYGSSYVHWFAYWGQGTLVTVSA
VL: DIQMTQSPASLSASVGETVTITCRAGENIYSYLAWYQQKQGKSPQLLVYNARTLAEGVPSRFSGSGSGTQFSLKINSLQPEDFGSYYCQHHYGSPRTFGGGTKLEIK
On to B4, for which, in the experiment with mouse CTLA4 [2], the binding result was “no binding (tested: 1 ug/ml)”.
